Measured values from PMC5120204, “Identification of an orally active small-molecule PTHR1 agonist for the treatment of hypoparathyroidism” (Nature Communications, 2016).
Where two headings read alike, the source gives them in different places. One block for each compound: values may come before it.

What was measured:
[1] = tested on: TPTX rats; test: Repeated administration study in TPTX rats, study 2 (add-on to alfacalcidol); format: in vivo, rat; details: alone at 75 ng kg^−1 once-daily oral, 4 weeks
Method: (§1) TPTX was carried out in 6-week-old female Crl:CD (SD) rats (Charles River Laboratories). Rats with serum Ca levels of <8.0 mg dl^−1 at 5 days after surgery were used in the following experiments. The rats were divided into four groups both in study 1 and 2, each with a similar mean value of serum Ca levels and body weight. Sample sizes were determined as described in the above single administration study. To evaluate the calcemic effects of PCO371 and hPTHs, we defined a target therapeutic range for serum Ca of 7.6–11.2 mg dl^−1, which corresponds to the low normal to normal range of serum Ca levels.
TPTX rats were orally treated once daily (vehicle; alfacalcidol (Chugai Pharma Manufacturing) at 38 or 75 ng kg^−1; or alfacalcidol at 38 ng kg^−1 plus PCO371 at 6 mg kg^−1) for 4 weeks. Five or six TPTX rats were assigned to each dose group. The vehicle for alfacalcidol was medium-chain triglyceride (Chugai Pharma Manufacturing). Under isoflurane anaesthesia, jugular vein blood was collected immediately before and at 6 and 10 h after administration to measure serum Ca levels on day 1 (the first dosing day), 8, 14, 22 and 28. Urine was collected for 24 h by using metabolic cages on days 28 and 29. Serum and urine Ca levels were measured in the same way as in the single-dosing study.

[2] = in vivo; details: female, Crl:CD(SD), rat, sc
Method: (§3) PCO371 was administered at a dose of 2, 6 or 18 mg kg^−1 orally to 7-week-old normal female rats (RccHan: WIST, JLA; three rats for each dose group), or at a dose of 2, 6 or 18 mg kg^−1 orally to 7-week-old female TPTX rats [Crl:CD(SD), Charles River Laboratories; three TPTX rats for each dose group] or at 30 mg kg^−1 orally or 3, 10 mg kg^−1 intravenously to 55-week-old OVX rats as described above. Blood samples were collected at 15 and 30 min, and 1, 2, 4, 8 and 24 h after administration. […] The concentrations of plasma PCO371 were determined by liquid chromatography–tandem mass spectrometry [LC-MS/MS (API-3200 (AB SCIEX), detection limit: 1 ng ml^−1).

[3] = tested on: OVX rats; test: Repeated administration study in OVX rats; format: in vivo, rat; details: day 84, all treated rats
Method: OVX was carried out in 32-week-old female Crl:CD (SD) rats (Charles River Laboratories). Twelve weeks after surgery, lumbar vertebral BMD (L3–L5) was measured in vivo by dual-energy X-ray absorptiometry (DXA) using a DCS-600EX-IIIR bone densitometer (Hitachi Aloka Medical), and the rats were divided into five groups, each with a similar mean value of BMD and body weight. Sample sizes were determined based on previous experiments with hPTHs and a published study with ibandronate and eldecalcitriol in our laboratories[42] (n=7–10). Then, OVX rats were treated once daily intravenously (vehicle or PCO371 at 3 or 10 mg kg^−1) or orally (vehicle or PCO371 at 30 mg kg^−1) or subcutaneously [vehicle or hPTH(1–34) at 0.9 nmol kg^−1] for 12 weeks. Ten to twelve OVX rats were assigned to each dose group. Nine rats were assigned to the sham-operated control group and were treated with vehicle for PCO371. Ten per cent DMSO (Wako Pure Chemical Industries)/10% Kolliphor EL (Sigma-Aldrich) in 10% hydroxypropyl-β-cyclodextrin (HPCD; Nihon Shokuhin Kako)/0.752% glycine (Wako Pure Chemical Industries) buffer was used as vehicle for PCO371, and phosphate-citrate buffer (pH 6.0) was used as vehicle for hPTH(1–34). To label bone-forming surfaces, tetracycline ([…], Nippon Zenyaku Kogyo) was subcutaneously injected on Day 78 and calcein (8 mg kg^−1, Dōjindo Laboratories) was subcutaneously injected on day 83. Under isoflurane anaesthesia, jugular vein blood was collected immediately before and at 1, 2, 6, 10 and 24 h after administration on day 82 to measure plasma concentration of PCO371 or on day 84 to measure serum Ca levels (o-CPC method, Wako Pure Chemical Industries). Urine was collected for 24 h from metabolic cages on days 84–85 to measure urinary collagen type 1 cross-linked C-telopeptide (CTX) by using the RatLaps ELISA System (Immunodiagnostic Systems). Under isoflurane anaesthesia, blood was collected on day 85 from the abdominal aorta to measure serum osteocalcin level by using the Rat Osteocalcin ELISA System (GE Healthcare). The lumbar spine and bilateral femurs were excised after 12 weeks of treatment. The first lumbar vertebra (L1), 3rd to 5th lumbar vertebrae (L3–L5), the right femur, and the right tibia were preserved in 70% ethanol to measure bone histomorphometry and BMD (DCS-600EX; Hitachi Aloka Medical). Measurement of bone histomorphometry was performed by the Ito Bone Histomorphometry Institute (Niigata, Japan). The second lumbar vertebra (L2) was wrapped in saline-soaked gauze and stored at −80 °C until measurement. Ultimate compressive strength (N) of the L2 vertebra was measured by using a mechanical testing machine (TK-252C; Muromachi Kikai).

[4] = human; ref Calcifi Tissue Int 2010 87:485, J Bone Miner Res 2013 28:2232, J Pharmcol Exp Ther 2009 330:169; cited from earlier work
[5] = Pharmacokinetics in normal rats
Method: as §3

[6] = biological target: T1, rat PTHR2 (Rattus norvegicus, UniProt P70555); test: cAMP production assay in COS-7 cells expressing rat PTHR2; format: cell-based
T1 construct: expressed in transfected cells; host or cells: COS-7 (transient)
T1 sequence (P70555 25-546): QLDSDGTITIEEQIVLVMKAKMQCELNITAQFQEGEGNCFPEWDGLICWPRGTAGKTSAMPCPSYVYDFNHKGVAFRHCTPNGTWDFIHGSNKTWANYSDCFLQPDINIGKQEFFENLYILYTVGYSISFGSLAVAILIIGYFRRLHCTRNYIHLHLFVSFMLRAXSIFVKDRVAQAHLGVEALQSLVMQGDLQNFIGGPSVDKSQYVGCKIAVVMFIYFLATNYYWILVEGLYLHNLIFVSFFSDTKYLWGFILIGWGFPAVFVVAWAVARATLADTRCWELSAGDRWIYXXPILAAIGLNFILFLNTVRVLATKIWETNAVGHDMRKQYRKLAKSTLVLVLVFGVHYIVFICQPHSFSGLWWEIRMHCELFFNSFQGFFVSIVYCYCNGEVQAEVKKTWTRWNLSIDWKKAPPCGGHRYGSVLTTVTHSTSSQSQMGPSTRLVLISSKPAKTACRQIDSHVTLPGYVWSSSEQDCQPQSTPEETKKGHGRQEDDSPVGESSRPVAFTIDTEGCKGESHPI
Method: (§2) COS-7 cells (ATCC) were seeded into a 96-well flat-bottomed plate (1.4 × 10^4 cells per 100 μl per well) and incubated overnight. The next day, the COS-7 cells were transfected by adding 10 μl of a mixture of hPTHR1, hPTHR2 or mutant hPTHR1 plasmid, rat PTHR1 or rat PTHR2 plasmid, or empty vector (0.1 μg per well), FuGENE HD Transfection Reagent (0.4 μl per well, Promega), and Opti-MEM I Reduced Serum Medium (10 μl per well, Life Technologies) to each well. […] The plate was placed in a 37 °C constant-temperature water bath for 20 min to allow the reaction to proceed. After incubation, the liquid in the wells was discarded, the wells were washed with the assay medium (100 μl per well), and the plate was frozen on dry ice. Next, 40 μl of 50 mmol l^−1 HCl was added to each well, and the plate was stored in a freezer set at ≤−20 °C. The cAMP concentrations were measured by using a cAMP EIA kit (GE Healthcare). EC50 values were determined from three independent experiments in duplicate by a non-linear regression Emax model (JMP ver.9.0.2, SAS Institute). The geometric mean of the EC50 values obtained in three experiments in duplicate was calculated using Microsoft Office Excel 2007. […]

[7] = biological target: T2, hPTHR2 (Homo sapiens, UniProt P49190); test: cAMP production assay in COS-7 cells expressing hPTHR2; format: cell-based; details: COS-7 cells expressing human PTHR2
T2 construct: expressed in transfected cells; host or cells: COS-7 (transient)
T2 sequence (P49190 25-550): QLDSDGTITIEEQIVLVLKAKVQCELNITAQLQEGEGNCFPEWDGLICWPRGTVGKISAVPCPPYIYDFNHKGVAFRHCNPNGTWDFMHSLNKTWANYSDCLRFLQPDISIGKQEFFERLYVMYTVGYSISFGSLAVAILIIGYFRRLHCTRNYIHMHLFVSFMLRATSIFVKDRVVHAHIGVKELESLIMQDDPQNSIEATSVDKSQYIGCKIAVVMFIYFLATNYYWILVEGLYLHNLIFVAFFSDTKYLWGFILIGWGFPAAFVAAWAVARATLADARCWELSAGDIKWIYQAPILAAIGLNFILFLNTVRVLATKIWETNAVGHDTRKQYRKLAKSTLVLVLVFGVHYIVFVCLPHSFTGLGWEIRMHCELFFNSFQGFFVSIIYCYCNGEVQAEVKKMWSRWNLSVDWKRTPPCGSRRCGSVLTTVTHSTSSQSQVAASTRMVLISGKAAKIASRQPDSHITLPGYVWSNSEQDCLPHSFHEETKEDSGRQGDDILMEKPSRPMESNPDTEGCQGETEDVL
Method: as §2

[8] = tested on: TPTX rats; test: Single administration study in TPTX rats; format: in vivo, rat; details: TPTX studies, 0.9 nmol/kg
Method: TPTX was carried out in 6-week-old female Crl:CD(SD) rats (Charles River Laboratories). Rats with serum Ca levels of <8.0 mg dl^−1 at 5 days after surgery were used for the experiment. The rats were divided into six groups, each with a similar mean value of serum Ca levels and body weight. TPTX rats were treated once orally (vehicle or PCO371 at 1.3, 6.5 or 33 mg kg^−1) or subcutaneously (vehicle or hPTH(1–84) (Chugai Pharmaceutical) at 9 nmol kg^−1). Six TPTX rats were assigned to each dose group. The sample size was determined based on previous experiments and a published study with hPTHs and LA-PTH in our laboratories[24] (n=5–6). Vehicle for PCO371 was the same as in the OVX rat study, and phosphate-citrate buffer (pH 6.0) was used as vehicle for hPTH(1–84). Under isoflurane anaesthesia, jugular vein blood was collected immediately before and at 1, 2, 6, 10 and 24 h after administrations to measure serum Ca (o-CPC method, Wako Pure Chemical Industries) and Pi levels (xanthine oxidase method, Wako Pure Chemical Industries).
In another experiment, the effects of a single treatment with PCO371 or hPTH(1–34) on serum Ca and Pi in TPTX rats (6-week-old) were evaluated at the dose of 3, 9.5 or 30 mg kg^−1 (PCO371, p.o.) or 9 nmol kg^−1 (hPTH(1–34), s.c.) according to the same method as that described above.

[9] = tested on: patients; design: method as in PMID 23649554; details: once-daily dosing; cited from earlier work
[10] = design: method as in earlier work; details: rat; ref Calcifi Tissue Int 2010 87:485, J Bone Miner Res 2013 28:2232, J Pharmcol Exp Ther 2009 330:169; cited from earlier work
[11] = tested on: TPTX rats; test: Repeated administration study in TPTX rats, study 1; format: in vivo, rat
Method: as §1
TPTX rats were treated twice daily (at around 09:00 and 19:00 hours) orally (vehicle or PCO371 at 1, 3 or 9 mg kg^−1) or subcutaneously [hPTH(1–34) or vehicle at 9 nmol kg^−1] for 4 weeks. Four rats were assigned to sham control, and treated with vehicle for PCO371. Vehicles for PCO371 and hPTH(1–34) were the same as in the OVX rat study. Under isoflurane anaesthesia, jugular vein blood was collected immediately before and at 6 and 10 h (for PCO371) or at 1 and 10 h (for hPTH) after administrations to measure the serum Ca levels on days 1 (the first dosing day), 7, 14, 22 and 29. Urine was collected for 24 h by using metabolic cages on days 29–30, and Ca excretion was calculated from urine volume and Ca level. Under isoflurane anaesthesia, jugular vein blood was collected 10 h after administrations to measure serum 1,25(OH)2D3 levels on Day 29 by using a 1,25(OH)2D3 RIA kit (Fujirebio). Four or five TPTX rats were assigned to each dose group. Serum and urine Ca levels were measured in the same way as in the single-dosing study. In another experiment, TPTX rats were treated subcutaneously once daily with hPTH(1–84) at 9 nmol kg^−1, for 4 weeks. Serum Ca was measured immediately before and at 2, 6 and 10 h after administration on day 1 (the first dosing day), 7, 14, 21 and 28 using the same method as described above. Urine was collected for 24 h by using metabolic cages on days 28 and 29, and Ca excretion was calculated from urine volume and Ca level.

[12] = Pharmacokinetics in TPTX rats; format: in vivo, rat
[13] = female, Crl:CD(SD), rat, plasma, sc, 3 nmol/kg

Compound: C=C1/C(=C\C=C2/CCC[C@]3(C)[C@@H]([C@H](C)CCCC(C)C)CC[C@@H]23)C[C@@H](O)C[C@@H]1O [Alfacalcidol, 1α-hydroxycholecalciferol, reference compound]
serum Ca [1]: normalized the serum Ca to within or above the target therapeutic range | urinary Ca excretion [1]: considerable urinary Ca excretion

half-life [2]: 15 min | half-life ([2]; 3 nmol/kg): 18 ± 6 min | serum Ca [3]: within the normal range | AUC(0-inf) [5, 13]: 0.99 ± 0.17 ng·h/mL | Cmax [5, 13]: 2.42 ± 0.53 ng/mL | Tmax [5, 13]: 6 ± 6 min | bioavailability [5, 13]: 22% | Tmax ([5]; rat (Table 1)): 5 min | Cmax ([5]; rat, plasma, sc, 0.9 nmol/kg): ~0.125 ng/mL
Compound: CC[C@H](C)[C@H](NC(=O)[C@H](CCC(=O)O)NC(=O)[C@H](CO)NC(=O)[C@@H](NC(=O)[C@@H](N)CO)C(C)C)C(=O)N[C@@H](CCC(N)=O)C(=O)N[C@@H](CC(C)C)C(=O)N[C@@H](CCSC)C(=O)N[C@@H](Cc1cnc[nH]1)C(=O)N[C@@H](CC(N)=O)C(=O)N[C@@H](CC(C)C)C(=O)NCC(=O)N[C@@H](CCCCN)C(=O)N[C@@H](Cc1cnc[nH]1)C(=O)N[C@@H](CC(C)C)C(=O)N[C@@H](CC(N)=O)C(=O)N[C@@H](CO)C(=O)N[C@@H](CCSC)C(=O)N[C@@H](CCC(=O)O)C(=O)N[C@@H](CCCN=C(N)N)C(=O)N[C@H](C(=O)N[C@@H](CCC(=O)O)C(=O)N[C@@H](Cc1c[nH]c2ccccc12)C(=O)N[C@@H](CC(C)C)C(=O)N[C@@H](CCCN=C(N)N)C(=O)N[C@@H](CCCCN)C(=O)N[C@@H](CCCCN)C(=O)N[C@@H](CC(C)C)C(=O)N[C@@H](CCC(N)=O)C(=O)N[C@@H](CC(=O)O)C(=O)N[C@H](C(=O)N[C@@H](Cc1cnc[nH]1)C(=O)N[C@@H](CC(N)=O)C(=O)N[C@@H](Cc1ccccc1)C(=O)O)C(C)C)C(C)C [hPTH(1–34), reference compound]
Tmax [4]: 30 min

Compound: TIP39: tuberoinfundibular peptide of 39 residues, the cognate ligand for PTHR2 [reference compound]
cAMP production [6]: showed an increase in cAMP production | cAMP production [7]: showed an increase in cAMP production

Compound: hPTH(1–84): the full-length, native PTH molecule called human PTH(1–84) [reference compound]
serum Ca levels [8]: failed to induce any changes | Tmax at the first peak [4]: 15 min | Tmax at the second peak [4]: 120 min | duration of observed effects [9]: up to 24 h | patients with hypercalcemia at peak times [9]: 71% | time of peak Ca levels after administration [9]: around 7 h | Tmax [10]: 5 to 15 min | urinary Ca excretion ([11]; after 4-week treatment, s.c. once daily 9 nmol kg^−1): No increase | serum Ca ([11]; subcutaneous 9 nmol kg^−1 for 4 weeks, target therapeutic range 7.6–11.2 mg dl^−1): transiently increased serum Ca to within the target therapeutic range | AUC ([12]; s.c. 30 nmol kg-1): 1.80 ± 0.78 ng·h/mL | Cmax ([12]; s.c. 30 nmol kg-1): 3.42 ± 1.10 ng/mL | T1/2 ([12]; s.c. 30 nmol kg-1): 12 ± 6 min | Tmax ([12]; s.c. 30 nmol kg-1): 12 ± 12 min | AUC ([12]; s.c. 100 nmol kg-1): 8.55 ± 4.63 ng·h/mL | Cmax ([12]; s.c. 100 nmol kg-1): 8.67 ± 1.97 ng/mL | T1/2 ([12]; s.c. 100 nmol kg-1): 102 ± 132 min | Tmax ([12]; s.c. 100 nmol kg-1): 6 ± 6 min | AUC ([12]; s.c. 300 nmol kg-1): 21.0 ± 5.58 ng·h/mL | Cmax ([12]; s.c. 300 nmol kg-1): 39.7 ± 10.3 ng/mL | T1/2 ([12]; s.c. 300 nmol kg-1): 66 ± 54 min | Tmax ([12]; s.c. 300 nmol kg-1): 6 ± 6 min
